Test results as given in patent US20130137856A1, “PROTEIN BINDING DOMAINS STABILIZING FUNCTIONAL CONFORMATIONAL STATES OF GPCRS AND USES THEREOF” (priority 2010, published 2013).
Substitutions are numbered along the chain they refer to. Entries after “also recorded” stand apart in the source; their conditions may differ.

What was measured:
β2AR [1] = target: T1, β2AR (Homo sapiens, UniProt P07550); test: [3H]-DHA competition binding on Sf9 insect cell membranes expressing β2AR, with or without nanobody; set-up: recombinant β2AR truncated at Gly365 (β2AR-365); made in house; host or cells: Sf9 insect cells (membranes); conditions: agonist competition binding with versus without nanobody
From the text: Panel b: Dose-response competition binding experiments on Sf9 insect cell membranes expressing β2AR.

β2AR [2] = target: T1, β2AR; test: Monobromobimane (mBBr) fluorescence of labeled purified β2AR; format: biochemical; conditions: for mBBr fluorescence change of isoproterenol-bound β2AR with nanobody (active state): 1 μM nanobody plus full agonist isoproterenol
From the text: To investigate the effect of nanobodies on movement of the cytoplasmic domain of TM6 we labeled purified β2AR at C265 with monobromobimane (mBB-β2AR). […] In mBB-β2AR, the addition of agonist together with G protein results in larger fluorescent changes than either agonist or G protein alone. This is compatible with the cooperative interactions observed in agonist competition binding assays (Yao et al. 2009).
Purified β2AR was reacted with 1:1 equivalent of monobromobimane (mBBr, Invitrogen) in 100 mM NaCl, 20 mM HEPES, pH 7.5, 0.1% dodecyl maltoside and incubated overnight on ice in the dark. The fluorophore-labeled receptor was purified right before use by gel filtration on a desalting column equilibrated with the same buffer. […] All experiments were performed at 25° C. […] To determine the effect of nanobodies and ligands, three individual labeled protein samples were incubated with 1 μM nanobody or 10 μM Isoproterenol or both. Emission spectra of the samples were taken after 1 hour incubation.

β2AR [3] = test: Size exclusion chromatography of nanobody with purified detergent-solubilized β2AR; format: binding, human; conditions: 20 μM β2AR bound to an agonist, 40 μM nanobody
Description: The mixture was then analyzed by Size Exclusion Chromatography (SEC), which separates protein on the basis of size. Seven of the nanobodies bound to purified β2AR and migrated as a complex on SEC only in the presence of agonist and not an inverse agonist (an example is shown in FIG. 1, Panel a, FIG. 3 and FIG. 4).
Agonist selective nanobodies were identified by size exclusion chromatography following incubation of 20 μM agonist or inverse agonist- (carazolol-) bound β2AR-365N for one hour at RT in the absence or presence of 40 μM nanobody.

human β1AR = human β1AR (Homo sapiens, UniProt P08588); test: [3H]-DHA competition binding on β1AR with and without Nb80
From the text: Active state stabilizing Nanobodies that are cross-reactive to related receptors can be used as a tool to stabilize a conformational state of those related receptors. […] Using the PISA server (Krissinel & Henrick, 2007) and based on the crystal structure of the Nb80-β2AR complex, 30 β2AR AA residues were identified to interact with Nb80 in the β2AR-Nb80 interface. […] The remaining interface residues are lysines in β2AR and have been substituted by arginines in β1AR corresponding to conserved substitutions (shown in grey boxes in FIG. 17). It thus appears that both receptors share a very similar binding site for Nb80. Based on this analysis, we also measured the effect of Nb80 on the affinity of […] for the agonist isoproterenol and the inverse agonist CGP20712A (FIG. 18).

β2AR [4] = target: T1, β2AR; test: Bimane fluorescence spectroscopy on mBB-β2AR reconstituted in HDL particles; conditions: Nb80 with 10 μM isoproterenol
β2AR [5] = target: T1, β2AR; test: Competition radioligand binding on commercial insect cell membranes with full-length human β2AR, Nb80 versus irrelevant Nb; conditions: radioligand displacement with Nb80 versus irrelevant Nanobody
[6] = Effect of Nb80 on ligand affinity of an unrelated receptor; format: binding; conditions: data not shown
β2AR [7] = target: T1, β2AR; test: Fluorescent (CPM) thermal stability assay of detergent-solubilized β2AR
Description: (§1) The effect of conformational selective nanobodies on the thermostability and the subsequent aggregation of the β2AR receptor was analyzed using a fluorescent thermal stability assay (FIG. 13) and size exclusion chromatography (FIG. 14).
The fluorescent thermal stability assay makes use of the thiol-specific fluorochrome N-[4-(7-diethylamino-4-methyl-3-coumarinyl)phenyl]maleimide (CPM) to measure the chemical reactivity of the native cysteines embedded in the protein interior as a sensor for the overall integrity of the folder state of membrane proteins (Alexandrov et al. 2008). For the fluorescent thermal stability assay, detergent-solubilized receptor (in 0.1% dodecylmaltoside, 100 mM NaCl and 20 mM Hepes pH 7.5) was pre-incubated with isoproterenol (10 μM) in the presence or absence of a 2:1 molar excess of Nb80 for one hour at RT. Samples were then mixed with CPM fluorophore and incubated for two minutes at temperatures ranging from 10° C. to 94° C. and fluorescence emission was collected. […] Unfolding transitions could be described by a simple two-state model, including the native (folded) and the denaturated state, representing the lower and upper plateaus of the melting curves.

β2AR-T4L = test: [3H]-DHA competition binding on β2AR-T4L reconstituted in HDL particles; set-up: species or system human
β2AR [8] = target: T1, β2AR; test: Temperature-induced aggregation of β2AR analyzed by SEC; conditions: DDM-solubilized β2AR, 10 μM isoproterenol, 2:1 molar excess of Nb80, 10 minutes at increasing temperatures
Description: as §1
We also analyzed the effect of Nb80 on the thermal unfolding and aggregation of the agonist-bound receptor by size exclusion chromatography (SEC). For this experiment, dodecylmaltoside-solubilized receptor was pre-incubated with isoproterenol (10 μM) in the presence or absence of a 2:1 molar excess of Nb80 for 45 minutes at RT. Samples were next incubated for 10 minutes at increasing temperatures and subsequently analyzed by SEC (FIG. 14).

β2AR [9] = target: T1, β2AR; test: [3H]-DHA competition binding on β2AR reconstituted in HDL particles; set-up: recombinant β2AR truncated at Gly365 (β2AR-365); made in house; host or cells: Sf9 insect cells (membranes)

Chain of human β1AR (P08588 whole entry): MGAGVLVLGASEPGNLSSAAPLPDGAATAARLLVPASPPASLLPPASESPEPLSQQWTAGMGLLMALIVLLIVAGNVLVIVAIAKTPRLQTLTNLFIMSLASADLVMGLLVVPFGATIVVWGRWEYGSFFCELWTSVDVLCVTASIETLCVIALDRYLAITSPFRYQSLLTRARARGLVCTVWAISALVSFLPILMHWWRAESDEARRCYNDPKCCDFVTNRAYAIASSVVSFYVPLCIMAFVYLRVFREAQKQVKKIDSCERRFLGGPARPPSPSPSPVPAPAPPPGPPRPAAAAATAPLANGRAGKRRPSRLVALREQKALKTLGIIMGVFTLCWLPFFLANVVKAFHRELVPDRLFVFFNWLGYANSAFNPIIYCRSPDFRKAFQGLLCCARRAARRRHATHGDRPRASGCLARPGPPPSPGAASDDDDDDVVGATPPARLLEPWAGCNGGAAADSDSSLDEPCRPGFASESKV

B1: NB69: β2AR-specific nanobody, SEQ ID NO:26 (protein, listed as Lama glama)
VHH: QVQLQESGGGLVQPGGSLRLSCAASGSIFSINAMGWYRQAPGKQRDLVASITSGGSTNYADSVKGRFTISRDNAKNTVYLQMNSLKPEDTAVYYCNVQGTGPSSWLFNEYDYWGQGTQVTVSS
Enhancement of β2AR affinity for the agonist isoproterenol in the presence of the nanobody (β2AR [1]): two- to thirty-fold
mBBr fluorescence change of isoproterenol-bound β2AR with nanobody (active state) (β2AR [2]; listed as 69): Comparable results; also recorded: stabilize a more active state
Complex formation with agonist-bound β2AR on SEC (β2AR [3]): complex formation

B2: NB71: β2AR-specific nanobody, SEQ ID NO:25 (protein, listed as Lama glama)
VHH: QVQLQESGGGLVQPGGSLRLSCAASGFAFSSYELRWYRQAPGKQHELVAGITTGGNTYYADSVKGRFTISRDNAKNTVYLQMSNLRPEDTAVYACNANWDLLSDYWGQGTQVTVSS
Enhancement of β2AR affinity for the agonist isoproterenol in the presence of the nanobody (β2AR [1]): two- to thirty-fold
mBBr fluorescence change of isoproterenol-bound β2AR with nanobody (active state) (β2AR [2]; listed as 71): Comparable results; also recorded: stabilize a more active state
Complex formation with agonist-bound β2AR on SEC (β2AR [3]): complex formation

B3: NB65: β2AR-specific nanobody, SEQ ID NO:5 (protein, listed as Lama glama)
VHH: QVQLQESGGGLVQAGGSLRLSCAASGSIFSINTMGWYRQAPGKQRELVAAIHSGGSTNYADSVRGRFTISRDNAKNTVYLQMNSLKPEDTAVYYCNVKDYGAVLYEYDYWGQGTQVTVSS
Enhancement of β2AR affinity for the agonist isoproterenol in the presence of the nanobody (β2AR [1]): two- to thirty-fold
mBBr fluorescence change of isoproterenol-bound β2AR with nanobody (active state) (β2AR [2]; listed as 65): Comparable results; also recorded: stabilize a more active state
Complex formation with agonist-bound β2AR on SEC (β2AR [3]): complex formation

B4: NB80: β2AR-specific nanobody, SEQ ID NO:4; lead nanobody stabilizing the active state (protein, listed as Lama glama)
VHH: B3 VHH with D61N, R64K, K75A
Conformational selectivity of Nb80 binding to human β1AR (human β1AR): selectively binds the active conformation
Effect of Nb80 on affinity of the agonist isoproterenol for β1AR (human β1AR; [3H]-DHA competition): increased affinity
Effect of Nb80 on β1AR affinity for CGP20712A (human β1AR; [3H]-DHA competition): does not change the affinity
Effect on bimane fluorescence in the presence of isoproterenol (β2AR [4]): increased
Enhancement of β2AR affinity for the agonist isoproterenol in the presence of the nanobody (β2AR [1]): two- to thirty-fold
Effect of Nb80 on β2AR affinity for agonists and antagonists (β2AR [5]): increases β2AR affinity for agonists but not for antagonists
Effect of Nb80 on unrelated receptors [6]: No such effect
mBBr fluorescence change of isoproterenol-bound β2AR with nanobody (active state) (β2AR [2]): larger changes were observed when both agonist and nanobody were added together; also recorded: stabilizes a more active state
mBBr fluorescence change of β2AR with nanobody alone (β2AR [2]; Nb80 alone, no agonist): relatively small changes in fluorescence
Apparent melting temperature for β2AR with Nb80 (β2AR [7]; DDM-solubilized, isoproterenol-bound β2AR, 2:1 molar excess of Nb80): 24 °C
Increase of the melting temperature (Tm) of the agonist-bound receptor (β2AR [7]; isoproterenol (10 μM)-bound β2AR with versus without Nb80): 12 °C
Increase of isoproterenol affinity in the presence of Nb80 (β2AR-T4L; β2AR-T4L/HDL with Nb80 versus without): 60 fold
Effect of Nb80 on affinity for the inverse agonist ICI-118,551 (β2AR-T4L; β2AR-T4L/HDL, ICI-118,551 competing against [3H]-DHA): does not increase the affinity
Effect on temperature-induced aggregation of the agonist-bound receptor (β2AR [8]): protects the agonist-bound receptor against temperature-induced aggregation
Complex formation with agonist-bound β2AR on SEC (β2AR [3]): β2AR-agonist-Nb80 complex formation
Increase of isoproterenol affinity in the presence of Nb80 (β2AR [9]; β2AR/HDL with Nb80 versus without): 95 fold
Effect of Nb80 on affinity for the inverse agonist ICI-118,551 (β2AR [9]; β2AR/HDL, ICI-118,551 competing against [3H]-DHA): does not increase the affinity; also recorded: little effect

B5: NB84: β2AR-specific nanobody, probably CA2784, SEQ ID NO:29; CA3484 carries the same short notation (protein, listed as Lama glama)
VHH: QVQLQESGGGLVQAGGSLRLSCAASGSIFSINAMGWYRQAPGKQRELVAAITSGGSTTYADSVKGRFTVSRDNAKNTVYLQMIRLKPEDTAVYYCHVRDIYSDFLGQYEYDYWGQGTQVTVSS
Enhancement of β2AR affinity for the agonist isoproterenol in the presence of the nanobody (β2AR [1]): two- to thirty-fold
mBBr fluorescence change of isoproterenol-bound β2AR with nanobody (active state) (β2AR [2]; listed as 84): Comparable results; also recorded: stabilize a more active state
Complex formation with agonist-bound β2AR on SEC (β2AR [3]): complex formation

B6: NB72: β2AR-specific nanobody, probably CA2772, SEQ ID NO:24; CA3472 carries the same short notation (protein, listed as Lama glama)
VHH: QVQLQESGGGLVQPGGSLRLSCAASGFTFSGYAMNWVRQAPGKGPEWVSAINSGGGSTSYADSVKGRFTISRDNAKNTVYLQMNSLKPEDTAVYYCHARDIYSDFLGQYEYDYWGQGTQVTVSS
Enhancement of β2AR affinity for the agonist isoproterenol in the presence of the nanobody (β2AR [1]): two- to thirty-fold
mBBr fluorescence change of isoproterenol-bound β2AR with nanobody (active state) (β2AR [2]; listed as 72): Comparable results; also recorded: stabilize a more active state
Complex formation with agonist-bound β2AR on SEC (β2AR [3]): complex formation

B7: NB67: β2AR-specific nanobody, SEQ ID NO:20 (protein, listed as Lama glama)
VHH: QVQLQESGGGLVQAGGSLRLSCAASGTISSFIAMGWYRQSPGKQRELVAGITSGGETNYEDSVKGRFTISRDNAKNTLYLQMNTLKPEDTAVYYCNAQVFADIFNLINYWGQGTQVTVSS
Enhancement of β2AR affinity for the agonist isoproterenol in the presence of the nanobody (β2AR [1]): two- to thirty-fold
mBBr fluorescence change of isoproterenol-bound β2AR with nanobody (active state) (β2AR [2]; listed as 67): Comparable results; also recorded: stabilize a more active state
Complex formation with agonist-bound β2AR on SEC (β2AR [3]): complex formation
